The source of these data is the supplement of paper PMC9170038.

This data set concerns MS2 coat protein. Nature of the data set: apparent KD of MS2 coat protein; designed switch direction (-1 OFF switch, 1 ON switch): -1; higher = weaker reporter binding. The essentials: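 Designed RNA switches with common flanks were transcribed on Illumina chips by stalled E. coli RNA polymerase and titrated with SNAP-549-labelled MS2 coat protein, from 0.7 or 1.5 nM doubling to 3 µM, in Tris-HCl pH 7.5 buffer with KCl, MgCl2, BSA, DTT, tRNA and Tween-20. Steps lasted 0.8–1.5 h (lowest) to 10–20 min (highest). Titrations ran without input, with 200 uM small-molecule ligand, or with an oligonucleotide input. Normalised cluster fluorescence was curve-fitted, and apparent KD is the per-design median over clusters.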

[1] abbreviates: Eterna round: R95, input ligand: FMN 200 uM.
[2] abbreviates: Eterna round: R95, input ligand: microRNA oligo, concentration not stated.
[3] abbreviates: Eterna round: R95, input ligand: none.
[4] abbreviates: input ligand: microRNA oligo, concentration not stated.

Take “CAUGAUCUUCGGAUCAUGGACAUGAGGAUCACCCAUGUCACGAGCAGAUCUUCAUGCAAGCUUUUUGCUCGUCUUAU [Sensor v3 - Turn-off variant 1 - 38] (puzzle: Sensor v3, turn-off variant 1)”: the “apparent KD of MS2 coat protein” value reads like this: under setting [1], 28 nM; under setting [2], 405 nM; under setting [3], 29.8 nM.

For “CAUGAUCUUCGGAUCAUGUACAUGAGGAUCACCCAUGUGACGAGUUUAUGGGUGAACAAGCUUUUUGCUCGUCUUAU [Sensor v3 - Turn-off variant 1 - 6] (puzzle: Sensor v3, turn-off variant 1)”, the “apparent KD of MS2 coat protein” value under setting [1] is 60 nM, the “apparent KD of MS2 coat protein” value under setting [2] turned out to be 11.2 nM and the “apparent KD of MS2 coat protein” value under setting [3] worked out at 68.9 nM.

For the sequence “CAUGAUCUUCGGAUCAUGUACAUGAGGAUCACCCAUGUUACGAGCAGAUUUUCAUACAAGCUUUUUGCUCGUCUUAU [Sensor v3 - Turn-off variant 1 - 31] (puzzle: Sensor v3, turn-off variant 1)”, the “apparent KD of MS2 coat protein” value runs as follows: under setting [1], 27.6 nM; under setting [2], 67.3 nM; under setting [3], 28.7 nM.

On to “CAUGAUUGACGAGGAUAUUGUUCUACAUCACGACGAGAAGGCGUCUGUCACAUGAGGAUCACCCAUGUGAGUCUGGUGAAUGAG [Ex NG1 #82] (Eterna round: R96, puzzle: Exclusion NG 1)”, for which the “apparent KD of MS2 coat protein” value reads like this: (input ligand: FMN 200 uM) 31 nM; under setting [4], 17.2 nM; (input ligand: none) 21.8 nM.

For the sequence “CAUGGCUACUAGGAUAUGUCGCGAUGGACGCAAACAGAAGGAGUAACAUGAGGAUCACCCAUGUUGUGACCUAA [Mabiaris] (Eterna round: R97, puzzle: Exclusion 6)”, the “apparent KD of MS2 coat protein” value was 200 nM (input ligand: FMN 200 uM) and 28.9 nM (input ligand: none).

With “CAUUACUGCAGGCUUCGGGACAUGAGGAUCACCCAUGUUCGUCUUAUUGAUCUAGGUACGCUGACGUACCUAGAUCU [JL-sv1-2.25 Brourd mod] (puzzle: Sensor v3, turn-off variant 1)”, the “apparent KD of MS2 coat protein” value by setting is: under setting [1], 17.3 nM; under setting [2], 16.1 nM; under setting [3], 15.6 nM.

On to “CAUUAUUAUCGAGGAUAUCCUAUUGUAAUUCUGGGAGAAGGCGGACUCAACAUGAGGAUCACCCAUGUAAGACGGGUACUAGAG [Ex NG1 #23] (Eterna round: R96, puzzle: Exclusion NG 1)”, for which the “apparent KD of MS2 coat protein” value by setting is: (input ligand: FMN 200 uM) 85.1 nM; under setting [4], 49.3 nM; (input ligand: none) 74.8 nM.

As for “CAUUCCGAGCGAGGAUAUCAGUAAAAGGGAAGCUGAGAAGGCGCAAACAUGAGGAUCACCCAUGUCACACGCGGGUAGUUUUCC [Ditiso] (Eterna round: R96, puzzle: Exclusion NG 1)”, the “apparent KD of MS2 coat protein” value is, setting by setting: (input ligand: FMN 200 uM) 13.9 nM; under setting [4], 9.74 nM; (input ligand: none) 14.3 nM.

On to “CAUUCGCAAGGAUAUUAUUGCAGUGACAUGAGGAUCACCCAUGUGUUCGUCAUGCAUCGAUGAGAAGGUGCAAGAC [Orater] (puzzle: Exclusion 5)”, for which the “apparent KD of MS2 coat protein” value came to 29.9 nM under setting [1], 36.4 nM under setting [2] and 41.2 nM under setting [3].

With “CAUUGUUAUCGAGGAUAUCGUAUUGAGAUUCUACGAGAAGGCGGACUAAACAUGAGGAUCACCCAUGUGAGACGGAUGCUUGGG [Ex NG1 #32] (Eterna round: R96, puzzle: Exclusion NG 1)”, the “apparent KD of MS2 coat protein” value reads like this: (input ligand: FMN 200 uM) 36.7 nM; under setting [4], 22.3 nM; (input ligand: none) 25.7 nM.

With “CCAAGCUGUGUGAGGAUAUGCUGAACCUUGGUUCAGCAGAAGGCACAUGAGGAUCACCCAUGUGAAAAGCUUGG [Mat - Exclusion 4 - JL Mod - D95] (puzzle: Brourd's mod of Exclusion 4)”, the “apparent KD of MS2 coat protein” value under setting [2] was found to be 15.3 nM.

In the case of “CCACAUGCAGGAUAUGUAAAAUUUGACAUGAGGAUCACCCAUGUAGAUCCUGAAUUUCCUGCAGAAGGGCAUGUGG [Mat - Exclusion 5 - Eli Mod - D19] (Eterna round: R97, puzzle: Exclusion 5)”, the “apparent KD of MS2 coat protein” value (input ligand: FMN 200 uM) turned out to be 605 nM and the “apparent KD of MS2 coat protein” value (input ligand: none) stood at 149 nM.
